In publication PMC7108666:

B1: GRSI oligonucleotide (dsDNA)
DNA 1: GTGTTCCGGGGTTGGATGCGGAA
DNA 2: TTCCGCATCCAACCCCGGAACAC
B2: UAS oligonucleotide (dsDNA)
DNA 1: TCTCGGGAAGCCAACTCCGAAGC
DNA 2: GCTTCGGAGTTGGCTTCCCGAGA

Legend:
Put3 = biological target: T1, Put3 (UniProt P25502 1-979); assay: EMSA
T1 sequence: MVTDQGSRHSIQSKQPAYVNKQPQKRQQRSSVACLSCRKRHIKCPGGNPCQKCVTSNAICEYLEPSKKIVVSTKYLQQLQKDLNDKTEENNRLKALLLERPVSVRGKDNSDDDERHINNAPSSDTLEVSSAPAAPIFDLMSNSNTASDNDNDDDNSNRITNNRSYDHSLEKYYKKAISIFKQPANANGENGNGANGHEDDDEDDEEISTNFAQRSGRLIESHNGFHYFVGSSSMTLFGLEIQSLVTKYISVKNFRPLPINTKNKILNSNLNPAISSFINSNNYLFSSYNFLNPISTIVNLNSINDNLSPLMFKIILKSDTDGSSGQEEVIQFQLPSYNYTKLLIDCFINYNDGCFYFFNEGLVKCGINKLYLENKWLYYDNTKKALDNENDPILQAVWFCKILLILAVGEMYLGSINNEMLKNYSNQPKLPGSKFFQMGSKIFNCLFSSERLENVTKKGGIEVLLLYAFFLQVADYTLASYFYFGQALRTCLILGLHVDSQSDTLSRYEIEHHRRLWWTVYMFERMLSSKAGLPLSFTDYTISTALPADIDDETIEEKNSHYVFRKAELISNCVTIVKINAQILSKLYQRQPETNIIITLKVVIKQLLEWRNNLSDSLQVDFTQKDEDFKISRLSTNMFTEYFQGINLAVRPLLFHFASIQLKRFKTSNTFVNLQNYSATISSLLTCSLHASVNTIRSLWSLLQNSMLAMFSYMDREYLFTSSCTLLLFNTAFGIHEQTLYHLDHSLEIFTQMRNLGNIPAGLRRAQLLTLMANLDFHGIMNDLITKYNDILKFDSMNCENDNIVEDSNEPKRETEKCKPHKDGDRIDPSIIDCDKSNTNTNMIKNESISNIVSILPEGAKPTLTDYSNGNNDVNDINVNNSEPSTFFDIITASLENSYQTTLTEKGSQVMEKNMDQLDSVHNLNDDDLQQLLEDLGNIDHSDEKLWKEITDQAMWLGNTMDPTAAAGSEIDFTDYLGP

Put3;Myo3 = Put3;Myo3 (Saccharomyces cerevisiae?;Saccharomyces …, UniProt P25502;P36006 1-979;1-1272, |); assay: EMSA

Binder	binding result (Put3)	binding result (Put3;Myo3)
B1	binds	binds
B2	binds	–
